Laboratory results as given in US20030078370.

Columns and labels:
[1] = test system: GFP protein fused to full length human cyclin E2 [GFP: P42212]
[2] = test system: GFP protein fused to human cyclin E2 splice variant [GFP: P42212]

hemagluttinin-tagged human cdk2
phosphorylation of histone H1 (kinase assay with 32P-ATP, autorad) [1]: can phosphorylate histone H1
phosphorylation of histone H1 (kinase assay with 32P-ATP, autorad) [2]: cannot phosphorylate histone H1
